Experimental findings from US7157259B2, “Murine lecithin-cholesterol acyltransferase protein” (Takeda Pharmaceutical Company Limited, priority 1997, dated 2007) are described below.

Data set [1] has as its target T1, human LCAT-like protein/FLAG fusion protein (Homo sapiens, UniProt Q8NCC3).
T1 construct: made in house; host or cells: baculovirus (Bac-To-Bac); secreted into the culture supernatant
T1 sequence (Q8NCC3 34-412): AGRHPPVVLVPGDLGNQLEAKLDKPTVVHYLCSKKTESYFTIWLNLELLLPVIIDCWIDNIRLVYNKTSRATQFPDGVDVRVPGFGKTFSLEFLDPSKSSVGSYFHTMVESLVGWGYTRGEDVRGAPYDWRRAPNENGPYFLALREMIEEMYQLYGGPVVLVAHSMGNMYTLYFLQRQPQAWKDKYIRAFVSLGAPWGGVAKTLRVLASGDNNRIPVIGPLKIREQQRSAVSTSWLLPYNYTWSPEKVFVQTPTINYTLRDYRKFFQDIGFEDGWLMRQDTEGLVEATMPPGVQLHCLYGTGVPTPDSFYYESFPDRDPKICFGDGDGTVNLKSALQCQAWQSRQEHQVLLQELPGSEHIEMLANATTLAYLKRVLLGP
Kind of data set: Influence of DFP and DTNB on esterase activity assayed with PNPB. The data set is classed as biochemical. To be noted: inhibitor pre-incubated 25° C. for 1 hour before substrate; PNPB 500 μM; fusion protein 3.4 μg/ml; FIG. 18.

A short description of data set [2]: Esterase activity assay using the fatty acid ester p-nitrophenyl butyrate (PNPB). The class given is biochemical. Here is the method:
Assays were carried out in accordance with the method of Bonelli, F. S. and Jonas, A. [Journal of Biological Chemistry, 264, 14723–14728, 1989]. Thus, to the reaction buffer (10 mM Tris, pH 7.4, 150 mM NaCl, 0.01% EDTA, 1 mM NaN3) was added a graded solution of p-nitrophenyl butyrate (PNPB) in acetonitrile (final concentration:5 mM–50 μM) as the substrate. Then, the human LCAT-like protein/FLAG fusion protein obtained in Example 9 was added (final concentration:3.4 μg/ml) to make 1 ml. The mixture was incubated at 37° C. for 20 minutes and the absorbance at 400 nm was measured at 2-minute intervals. From the percent changes in absorbance at the respective substrate concentrations, initial velocity was calculated, and according to the Lineweaver-Burk method, Vmax and Km were calculated (FIG. 16). […] Using 50 μl of the semi-purified enzyme solution of fractions 6 and 7 (4 ml) obtained in Example 12 (FIG. 14), a similar activity assay was carried out at a substrate concentration of 100 μM.

[3] abbreviates: PNPB 5 mM–50 μM, protein 3.4 μg/ml, 37° C., compared with human plasma LCAT, FIG. 16.

Consider `O=C(O)c1cc(SSc2ccc([N+](=O)[O-])c(C(=O)O)c2)ccc1[N+](=O)[O-]` [DTNB, 5,5′-dithiobis(2-nitrobenzoic acid)], for which the “inhibition of esterase activity” value in data set [1] is listed as “inhibited”.

B1: human LCAT-like protein/FLAG fusion protein: human LCAT-like protein with FLAG peptide fused at C-terminus, expressed in insect cells, purified on anti-FLAG M2 affinity column (protein)
chain: T1 sequence (Q8NCC3 34-412)
modifications: left off: small tags and cut ends
B1: in data set [2] (setting [3]), the “Km (Lineweaver-Burk)” value was “agreed with the values of human plasma LCAT on an order basis” and the “Vmax (Lineweaver-Burk)” value is on record as “agreed with the values of human plasma LCAT on an order basis”.

B2: human LCAT-like protein: recombinant human LCAT-like protein expressed in High Five insect cells, semi-purified on Phenyl-Sepharose HP (fractions 6 and 7) (protein, UniProt Q8NCC3 34-412, looked up)
Lysosomal phospholipase A and …: T1 sequence (Q8NCC3 34-412)
For the molecule B2, in data set [2] (50 μl semi-purified enzyme solution of fractions 6 and 7 of Example 12, PNPB 100 μM, FIG. 17), the esterase activity entry is “confirmed to have esterase activity”.
